Experimental data as given in patent publication US20160201045A1, “Endo-xylanase and Coding Gene and Use Thereof” (SHANGHAI INSTITUTES FOR BIOLOGICAL SCIENCES CHINESE ACADEMY …, priority 2013, published 2016).
Values joined by “and” are separate entries in the source; they are usually repeats but may differ in a detail not shown here. Identical values can stand only once.

Assay: Specific activity of the xylanase on beech xylan (DNS method)
Assay type: biochemical
Conditions: pH7.0, 50° C., 10 minutes
Experimental: Enzymatic activity of the endo-1,4-β-xylanase was tested by a DNS method as follows:
10 g NaOH were weighed and dissolved in about 400 ml ddH2O. 10 g dinitrosalicylic acid, 2 g phenol, 0.5 g anhydrous sodium sulfite and 200 g potassium sodium tartrate tetrahydrate were weighed and dissolved in about 300 ml ddH2O. The two solutions were mixed, diluted to 1 liter and preserved in dark.
100 μl DNS were added into each of the above standard samples. The mixtures were subjected to boiled water bath for 5 minutes for developing color. Absorbance value at 540 nm was detected by a microplate reader. Standard sample 1 was a blank control. The absorbance value of the blank control was subtracted from that of each sample and then the standard curve was plotted.
In a 100 μl reaction system, birch xylan was added to a final concentration of 1% (w/w), and Na2HPO4/NaH2PO4 buffer (pH7.0) was added to a final concentration of 100 mM. A suitable amount of enzyme solution diluted by the abovementioned buffer was added to the reaction system for reaction at 50[…] for 10 minutes. 100 μl DNS were added to stop the reaction. […] Absorbance value at 540 nm was detected by a microplate reader. After subtracting the absorbance value of the control from that of the sample, the enzymatic activity unit (U) was calculated based on the standard curve. […]

B1: Xyl7: endo-1,4-β-xylanase of 505 amino acids, SEQ ID NO:2, from termite gut metagenome, expressed in E. coli with His tag (protein)
chain: MKKLIALSFIAAFFAPLFAQGPTWTTSTIQAYNGYDYELWNQNNAGTVSMKLTGDNGSGASAVGGTFTATWSNTQNVLFRSGKKWGSSSNQNHTQIGNMSINFAATWSSTDNVKMLGVYGWAYFTSANVPTKQENGTNASFSNQIEYYIIQDRGSYNPASGGTNAKKYGSATIDGIAYDFYVCDRINQPMLTGNGNFKQFFSVPQSASAHRTSGTISVSQHFNKWHELGMKMDGPLYEVAMKVESYTGSGSSNGSATVTKNLLTIGGTTPTPSSNSGGTTSSSSRASSSSRASSSSNAAVQATTCKTPLITYPTSTVPSDPYTACFKYTDDKCYVCKVENEGEFEGNMNTCGSGWVWDGTQIDNNLRDGYWYQEVPCPAGSSSSRSSSSSVAVSSSSRSSSSSVAASSSSRSSSSSASVSSSSEETPIRVLHTIPSKFRVRSLNNGALQIESNADVVLYLYDTKGKMAQKIEAPTGSSIVKLSVPAGIYIVRNVQTKEKLRVMVR
modifications: His tag; Intestinal tract metagenome of termite
  Specific Activity on beech xylan: 6340 U/mg and 6340 ± 48 U/mg
Listed as xylanase of the present disclosure
  Specific Activity on beech xylan: higher than 6340 U/mg
